# Test results taken from the nanobody polyreactivity screen of Harvey et al. (2022).
# Experiment: yeast display, Sf9 membrane polyspecificity reagent, FACS + sequencing; frameworks hold sequencing errors
# In short: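 Sorting gates, low and high (top ~1%), were placed on anti-HA fluorescence to track expression and on streptavidin fluorescence to track reagent binding. A clone's polyreactivity label is taken from the gate it came out of. The reagent was 10% biotinylated, detergent-solubilized Sf9 membrane, applied for 1 hour at 4 °C to galactose-induced yeast display cells.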
row,Sequence,polyreactivity (PSR sort gate)
1,QVKLVESGGGLVQAGGSLRLSCAASGNIFSIYAMGWYRQAPGKERELVAAITARGGRTYYADSVKGRFTFSRDNAKNTVYLQMNSLKPEDTAVYYCNAVRSTKGYWVPFGGDYWGQGTQGTVSS,low polyreactivity
2,QVQLVESGGGLVQAGGSLRLSCAASGRIFPNAMGWYRQAPGKERELVAAISWSGVTTTYADSVKGRFTISRDNAKNTVYLQMNSLKPEDTAVYYCAARYWAYGYWGQGTQVTVSS,high polyreactivity
3,QVQLVESGGGLVQAGGSLRLSCAASGFTFSINAMGWYRKAPGKERELVAGISWSGGITYYADSVKGRFTISRDNAKNTVYLQMNSLKPEDTAVYYCNTDYGLTTPVVWDDYWGQGTQVTVSS,low polyreactivity
4,HVQLQESGGGLVQAGGSLRLICAASGNIVDDDIMGWYRQAPGKEREIVASITDGGSTNYADSLKGRFTISRDNAKNTVYQQMNILIREVTAVYYCAAIAYPDIPTYFVYDSDSFYWGQGTQETVSS,high polyreactivity
5,QVQLVESGGGLVQAGGSLRLSCAASGSIFPIYAMGWSRQPPGKESELVAPISRGGSTNYADSVKGRFTISRDNAKNTVYLQMNSLKPEDTAVYYCAAQSRVFSTWGSTGEYYYWGQGTQVTVSS,low polyreactivity
6,QVQLVESGGGLVQAGGSLRLSCAASGSTFYYYAMGWYRQAPGKERELVAAISGGGNTKYADSVKGRFTISRDNAKNTVYLQMNSLKPEDTAVYYCAARLAYWYYYAWRGPYYYWGQGPQVTVSS,high polyreactivity
7,QVQLVESGGGLVQAGGSLRLSCAASGITFSDYAMGWYRQAPGKERELVAGITSGGSTYYADSVKGRFTISRDNAKNTVYLQMNSLKPEDTAVYYCAAVRRWKYDWGQGTQVTVSS,high polyreactivity
8,QVQLVESGGGLVQAGGSLRLSCAASGSTLGAYAMGWYRQAPGKERELVAAITYSTGSTYYADSVKGRFTISRDNAKNTVYLQMNSLKPEDTAVYYCAAATYQSRYFQRFDCWGQGTQVTVSS,high polyreactivity
9,QVQLVESGVGLVQAGGSLRLSSAASGSIFAHNAMGWYRQEPGKEREFVATITYSGGTTYYADSVKGRFTISRDNAKNTVYLQMNILKPEDTAVYYCAKLRYPYLFWDDSEYWGQGTQVTVSS,low polyreactivity
10,QVQLVESGGGLVQAGGSLRISFAASGRTFFGYAMGWYRQAPGKERELVATIDGSDGSTFYADSVKGRFTISRDNAKNTVYLQMNSLKPEDTAVYYCAAENFWQSKEYDYWGQGTQVTVSS,low polyreactivity
11,QVQLVESGGGLVQAGGSLRLICAASGRTFDNYAMGWYRQAPGKEREFVAAITTGVGSTYADSVKGRFTISRDNAKNTVYLQMNSLKPEDTAVYYCAGDSYWLFDAYDYWGQGTKVTVSS,low polyreactivity
12,QVQLVESGGGLVQAGGSLRLSCAASGITFNSNAMGWYRQAPGKERELVATISNGGSTNYADSVKGRFTISRDNAKNTVYLQMNSLKPEDTAVYDCNTRRGSLSGLYVYSIQGYDYWGQGTQVTVSS,low polyreactivity
13,QLQLVESGGGLVQAGGSLRLSCAASGSTFDVNAMGWYRQAPGKERELVAAISYSGGSTYYADSVKGRFTISRDNAKNTVYLQMNSLTPEDTAVYYCNAVFSRYSRLELGYWGQGTQVTVSS,high polyreactivity
14,QVQVVESGGGLVQAGGSLRLSCASSGRTFGIYAMGWYRPAPGKESEWVASISWSGGRTYYADSVKGRFTISRDNAKNTVYLVMISLKPEDTAVYFCAARWYYVTPLRRYGYWGQGTQVTVSS,high polyreactivity
15,QVQLVESGGGLVQAGGSLRLSCAASGSTFGGNGMGWYRQAPGKEREFVATITWRSGSTYYADSVKGRFTISRDNAKNSVYLQMNSLKPEDSAVYYCAKYTSSRRNTWYYYWGQGTQVTVSS,high polyreactivity
16,QVQLVESGGGIVQAGGSLRLSCAASYYDMGWYRQAHGKERELVASISSGGSTNYADSVKGRFTISRDNAKNTVYLQMNSLKPEVTAVYYCAAVVADGVWVKIADEYWGQGTQVTVSS,low polyreactivity
17,QVQLIESGGGLVQAGGSLRLSCAASGSTFYGNAMGWYRQAPGKEREFVDAITGSGDSTDYADSVKGRFTISRDNAKNTVYLQMNSLKPEDTAVYFCNAEVFDRDSYEYWGQGTQVSVSS,low polyreactivity
18,QVQLVDSGGGLVQAGGSLRLSSAASGSTFAVNAMGWYIQARGKERELVAAISDSDGSTFYADSVKGRFTISRDNAKNTVYLQMNSLKPEDTAVYYCAATVYRVFRYSYLYYYWGQGTQVTVSS,low polyreactivity
19,QVQLVESGVGLVQAGGSLRLSCAASGSIITPYAMGWYRQAPGKERELVAAITSGGSTYADSVKGRFTISRDNAKNTVYLQMNSLKPEDTAVYYCAADRSYVYAGADMYYWGQGTQVTVSS,low polyreactivity
20,QVQLVESGGGLVQAGGSLRLSCAASGRTFVTYTMGWYRPAPGKERELVAAISRDGRTYYADSVKGRFTISRDNAKNTVYLQMNSLKPEDTAVYYCATRYKSPSFDYWGQGTQVTVSS,high polyreactivity

row,Sequence,polyreactivity (PSR sort gate)
1,QVQLVESGGGLVQAGGSLRLSCAASGTIFYVYAMGWYRQAPGKERELVDAINTSGGSTFYADSVKGRFTISRDNAKNTVYLHMKSLKPEDTAVYYCAAERYRYRSTDTMGYWGQGSQVTVSS,low polyreactivity
2,QVQLVESGGGLVQAGGSLRLSCAASGRTFVWNAMGWYRQAPGKERELVAAISSSGGSTYYADSVKGRFTISRDNAKNTVYLQMNSLKPEDTAVYYCAARRASGFDWGQGTQVTVSS,high polyreactivity
3,QVQLVESGGGLVQAGGSLRLSCAASGLIFGPYAVGWYRQAPGKERELVAGISRGGSTYYADSVKGRFTISRDNAKKTVYLQMNSLKPEDTAVYYCAASRRYRGVNRPGDYWGQGTQVTVSS,high polyreactivity
4,QVQLVESGGGLVQAGGSLRLSCAASGSIFRRNAMGWYRQAPGKERELVAAISSNGGSTYYADSVKGRFTISRDNAKNTVYLQMNSLKQEDTAVYYFNALGRVRYSPRYGYDYWGLGTQVTVSS,high polyreactivity
5,QVQLVESGGGLVQAGGSLRLSCSATGRIFVLYDMGWYRQAPGKERELVAGISGSGGRTYYADSVKGRFTISRDNAKNTVYLQMNSLKAEDTAVYYFNALGYYWYRPYVNSNGGYWGQGTLVTVSS,high polyreactivity
6,QEQLQESGGGLVQAGCSLRLSCAANGYIFSVEDMGRYCLAPGKEREFVATINYDTSTYYADSVKGSFTISRDNAKKTVYLQMNSLKPEDTEVYYCEAYFYAYRSPGYWGQGTQVTVSS,high polyreactivity
7,QVQLVESGGGLVQAGGSLRLSCAASGRIFSRYVMGWYRQAPGKEREFFASITWSGSSTYYADSVKGRFTISRDNAKNTVYLQMNSLKPEDTAVYYCAALGLLSPSPCGTHISEYDSWGQGTQVTVSS,low polyreactivity
8,QVQLVESCGGLVQAGASLRLSCAASGSTFKYYTMGWYIQSPGKERELVAAISFSGARTYYADSVKGRFTISRDNAKNNVYLQMNSLKPEDTAVYYCAKRATWYTVPREGYWGQGTLVTVSS,high polyreactivity
9,QVQLVESGGGVVQAGGSLRLSCAASGRIFYKYAMGWYRQAPGKAREFVATISSSGGSTYYADSVKGRFTISRDNAKNTAYLQMNSLKPEDTAVYYCAARYGRVTREYWGQGTQVTVSS,high polyreactivity
10,QVQLVESGGGLVQAGGSLRLSCAASGRTFKRNGMGWYRQAPGKERELVAAIRNTGSTKYADSVKGRFTISRDNAKNTVYLQMNSLKPEDTAVYYCNARVYEAQTYYYWGQGTQVTVSS,high polyreactivity
11,QVQLVESGGGLVQAGGSLRLSCAASGSTFILNAMGWYRQAPGKERELVATISSSDTSTYYADSVKGRFTISRDNAKNTVYLLMNSLKPDDTAVYFCNADYYTTSYLQRVYHYGVEYDYWGQGTQVTLSS,low polyreactivity
12,QVQLVESGGRLVQAGGTLRLSCADSGNTLHVYAMGWYRQAPGKERELVARITGGGRKYYADSVKGRFTISRDNAKNTVYLLMNSLNPEDTAVYYCATDYYGHKFLYDYWGQGTQVTVSS,low polyreactivity
13,QVQLVESGGGLVQAGGSLRLSCAASGSTFHGYDMGWYRQAPGKERELVAAITSSGDDTYYADSVKGRFTISRDNAKNTVYLQMNSLKPEDTAVYYCAAEYTEGYTHDYWGQGTQVNVSS,low polyreactivity
14,QVQLVESGGGLVQAGGSLRLSCAASGLNQANYAMVWYRQAPGQEREMVAAISSSGGSTYYADSVKGRFTISRDNAKNTVYLQMNSLKPEDTAVYYCAAYPLYRRSWTGDYWGQGTQVTVSS,high polyreactivity
15,QVQLVESGGGLVQAGGSLRLSCAASGSIFNGYVMGWYRQAPGKERELVASINRGGTTNYADSVKGRFTISRDNAKNTVYFQMNSLKPEDTAVYYCAVDDDANSLGGYYVLFDYWGQGTQVTVSS,low polyreactivity
16,QVQLVESGGGLVQAGGSLRLSCAASGFTFRVYAMGWYRQAPGKERELVASITWSGASTYYADSVKGRFTISRDNAKNTVYLQMNSLKPEDTAVYYCAAKYSDYQYGRYYYWGQGTQVTVSS,high polyreactivity
17,QVQLVESGGGLVQAGGSLRLSCAASGFTFGYNAMGWYRQAPGKERELVAVITQSGGRTYYADSVKGRFTISRDNAKNTVYLQMISLKPEDTAVYYCNKVPRVYGYVKGSDYWGQGTQVTVSS,high polyreactivity
18,QVQLVESGGGLVQAGGSLRLSCAASGSTFLSYAMGWYRQAPGKERELVAAITGSGGSTYYADSVKGRFTISRDNAKNTVYLQMNSLKPEDTAVYYCATDLWRWYGWFDYWGQGTQVTVSS,low polyreactivity
19,QVQLVESGGGLVQAGGSLRLSCAASGFTFTGYAIGWYRQAPGKERELVAAITSNTGGTYYADSVKGRFTISRDNAKNTVYLEMNSLKAEDTAVYYCAAGHSGGQVDTIFQGMDYWGQGTQVTVSS,low polyreactivity
20,QVQLVESGGGLVQAGGSLRLSCAASGSIFARYAMGWYRQAPGKERELVAAISSNSASTYYADSVKGRFTISRDNAKNTVYLQMNSLKPEDTAVYYCATAYRSYWLTDYSGQGTQVTVSS,low polyreactivity
